This is an account of results in PMC11814294 (2025).

For orientation: Kd means a measure of binding affinity in units of concentration. Read a low Kd as a tighter complex.

This assay deals with GST-His-ZTL (Arabidopsis thaliana, UniProt Q94BT6 1-609, RED-NHS 2nd Generation fluorescent label (in the MST assay only)). As to the kind of experiment: MST.
Chain of GST-His-ZTL (Q94BT6 whole entry): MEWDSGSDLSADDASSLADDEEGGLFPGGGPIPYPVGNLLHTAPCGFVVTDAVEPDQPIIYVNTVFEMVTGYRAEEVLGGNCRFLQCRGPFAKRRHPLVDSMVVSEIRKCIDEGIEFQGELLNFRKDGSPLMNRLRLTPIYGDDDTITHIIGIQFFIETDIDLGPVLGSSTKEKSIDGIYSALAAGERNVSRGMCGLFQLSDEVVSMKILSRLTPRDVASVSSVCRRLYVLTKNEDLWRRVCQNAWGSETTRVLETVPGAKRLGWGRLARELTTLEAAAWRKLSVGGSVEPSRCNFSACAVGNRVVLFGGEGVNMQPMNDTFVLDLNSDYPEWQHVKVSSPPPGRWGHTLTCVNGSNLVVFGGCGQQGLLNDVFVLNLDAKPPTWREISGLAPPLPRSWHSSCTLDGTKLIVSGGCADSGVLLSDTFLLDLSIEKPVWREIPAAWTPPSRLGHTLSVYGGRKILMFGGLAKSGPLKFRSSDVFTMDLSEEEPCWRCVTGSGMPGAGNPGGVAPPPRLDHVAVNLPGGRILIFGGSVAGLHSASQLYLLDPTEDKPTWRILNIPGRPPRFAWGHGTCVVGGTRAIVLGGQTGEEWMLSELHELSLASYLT

B1: His-CHE (natural protein)
chain: not shown
Molecule B1 yielded a dissociation constant Kd of 190 nM.
